For one test, the target named is HLA-A*02:03. The test can be described thus: IEDB peptide-MHC binding, purified MHC/competitive/fluorescence; filed as Kd, often an IC50 or EC50 that approximates it; ≥ and ≤ were set here for values at or beyond the usual limits of such assays. The note with it: source organism: Vaccinia virus Copenhagen.
Test [1] has as its target HLA-B*15:01. Described as above. The note with it: source organism: Vaccinia virus Copenhagen.
Another test deals with HLA-B*18:01. Described as above.
Test [2] concerns the target HLA-A*31:01. Described as above.
Test [3] addresses HLA-B*15:17. The test is described as above.
For another test, the target named is HLA-A*26:02. Described as above.
The next test has as its target HLA-B*07:02. The test can be described thus: IEDB peptide-MHC binding, purified MHC/direct/fluorescence; filed as Kd, often an IC50 or EC50 that approximates it; ≥ and ≤ were set here for values at or beyond the usual limits of such assays.
For another test, the target named is HLA-A*24:03. The test is described as above. To be noted: source organism: Camelpox virus M-96.
The target of a further test is HLA-B*15:09. Described as above. To be noted: source organism: Variola virus.
Test [4] has as its target HLA-A*11:01. The description is as above. To be noted: source organism: Camelpox virus M-96.
The target in the next test is HLA-C*14:02. Described as above. To be noted: source organism: Vaccinia virus Copenhagen.
For the next test, the target named is HLA-A*02:01. Described as above.
For the next test, the target named is HLA-B*08:03. The description is as above. To be noted: source organism: Variola virus.
In another test the target is HLA-B*57:01. The test is described as above.
The target of a further test is HLA-B*08:01. The test is described as above.
A further test addresses HLA-A*69:01. The test is described as above.
Test [5] has as its target HLA-B*39:01. The description is as above. The note with it: source organism: Variola virus.
The target of a further test is HLA-A*01:01. The description is as above.
For test [6], the target named is HLA-A*68:02. The description is as above.
Another test deals with HLA-B*58:01. The description is as above.
The target in test [7] is HLA-A*11:01. The test can be described thus: IEDB peptide-MHC binding, purified MHC/competitive/fluorescence; filed as Kd, often an IC50 or EC50 that approximates it; ≥ and ≤ were set here for values at or beyond the usual limits of such assays.
The target in a further test is HLA-A*30:01. The description is as above.
Test [8] has as its target HLA-B*15:01. As to the kind of experiment: IEDB peptide-MHC binding, purified MHC/direct/fluorescence; filed as Kd, often an IC50 or EC50 that approximates it; ≥ and ≤ were set here for values at or beyond the usual limits of such assays.
Test [9] deals with HLA-A*31:01. The test is described as above. To be noted: source organism: Influenza A virus (A/chicken/Hubei/wk/1997(H5N1)).
In a further test the target is HLA-B*48:01. The description is as above. To be noted: source organism: Influenza A virus (A/chicken/Hubei/wk/1997(H5N1)).
For a further test, the target named is HLA-A*03:01. The description is as above. The note with it: source organism: Influenza A virus (A/chicken/Hubei/wk/1997(H5N1)).
Another test has as its target HLA-B*73:01. The description is as above. To be noted: source organism: Influenza A virus (A/chicken/Hubei/wk/1997(H5N1)).
The next test deals with HLA-B*46:01. As to the kind of experiment: IEDB peptide-MHC binding, purified MHC/competitive/fluorescence; filed as Kd, often an IC50 or EC50 that approximates it; ≥ and ≤ were set here for values at or beyond the usual limits of such assays. To be noted: source organism: Listeria monocytogenes serotype 1/2a str. F6854.
A further test deals with HLA-C*06:02. As to the kind of experiment: IEDB peptide-MHC binding, purified MHC/direct/fluorescence; filed as Kd, often an IC50 or EC50 that approximates it; ≥ and ≤ were set here for values at or beyond the usual limits of such assays. To be noted: source organism: Listeria monocytogenes serotype 1/2a str. F6854.
A further test concerns the target HLA-C*15:02. The test is described as above. The note with it: source organism: Listeria monocytogenes serotype 1/2a str. F6854.
The target of the next test is HLA-C*07:02. Described as above.
The next test addresses HLA-A*02:06. As to the kind of experiment: IEDB peptide-MHC binding, purified MHC/competitive/fluorescence; filed as Kd, often an IC50 or EC50 that approximates it; ≥ and ≤ were set here for values at or beyond the usual limits of such assays. To be noted: source organism: Vaccinia virus WR.
Test [10] has as its target HLA-B*39:01. Described as above. To be noted: source organism: Vaccinia virus WR.
Test [11] deals with HLA-A*68:02. The test is described as above. To be noted: source organism: Vaccinia virus WR.
Test [12] addresses HLA-B*15:17. The test can be described thus: IEDB peptide-MHC binding, purified MHC/direct/fluorescence; filed as Kd, often an IC50 or EC50 that approximates it; ≥ and ≤ were set here for values at or beyond the usual limits of such assays. The note with it: source organism: Camelpox virus M-96.
The mark [13] stands for this setting: source organism: Vaccinia virus Copenhagen.
The mark [14] stands for this setting: source organism: Camelpox virus M-96.
The mark [15] stands for this setting: source organism: Influenza A virus H3N2.
[16] abbreviates: source organism: Influenza A virus (A/chicken/Hubei/wk/1997(H5N1)).
Where [17] appears, read: source organism: Vaccinia virus WR.

Where only a bound is given, the exact number is not on record here.

What is called Kd is a measure of binding affinity in units of concentration. As to KYFDDVTAF, the Kd was 3.99 µM with HLA-A*02:03; 2.07 µM with HLA-B*15:01 [1]; 0.0874 µM in the test with HLA-B*18:01 (setting [13]); 2.95 µM in the test with HLA-A*31:01 [2] (setting [13]); 4.33 µM in the test with HLA-B*15:17 [3] (setting [13]); at least 20 µM with HLA-A*26:02 (setting [13]). In addition, the Kd is at least 20 µM with HLA-B*07:02 (setting [14]); 0.0055 µM with HLA-A*24:03; at least 20 µM with HLA-B*15:09; at least 20 µM with HLA-A*11:01 [4]; at most 0.001 µM with HLA-C*14:02; at least 20 µM with HLA-A*02:01 (setting [14]). The Kd in the test with HLA-B*08:03, in the test with HLA-B*57:01 (setting [14]), with HLA-B*08:01 (source organism: Variola virus), in the test with HLA-A*69:01 (setting [14]), with HLA-B*39:01 [5] and with HLA-A*01:01 (setting [14]) was at least 20 µM throughout. The Kd with HLA-A*68:02 [6] (setting [14]) and with HLA-B*58:01 (setting [14]) was at least 20 µM each time.

Take MKWMMAMKY: the dissociation constant (Kd) with HLA-A*11:01 [7] (setting [15]) is at least 20 µM; with HLA-B*18:01 (setting [15]), 0.984 µM; in the test with HLA-B*15:17 [3] (setting [15]) it was 0.912 µM; in the test with HLA-A*30:01 (setting [15]) it was 1.08 µM; with HLA-B*07:02 (setting [16]) it was at least 20 µM; with HLA-A*02:01 (setting [16]) it was at least 20 µM. Moreover, the equilibrium dissociation constant (Kd) with HLA-B*15:01 [8] (setting [16]), with HLA-B*57:01 (setting [16]), in the test with HLA-B*08:01 (source organism: Influenza A virus(A/swine/Shandong/fNY/2003(H9N2))), with HLA-A*31:01 [9], with HLA-A*69:01 (setting [16]) and with HLA-A*01:01 (setting [16]) was at least 20 µM in each case. Further, the Kd in the test with HLA-A*68:02 [6] (setting [16]), with HLA-B*48:01, in the test with HLA-A*03:01, with HLA-B*73:01 and with HLA-B*58:01 (setting [16]) was at least 20 µM each time.

For KMIGNLLSF, the Kd with HLA-B*46:01 was 1.11 µM; with HLA-C*06:02, at least 20 µM; with HLA-C*15:02, 2.56 µM; in the test with HLA-C*07:02 (source organism: Listeria monocytogenes serotype 1/2a str. F6854), 0.666 µM.

As for NYFNRMFHF, the Kd with HLA-A*02:06 was 3.36 µM; with HLA-A*11:01 [7] (setting [17]) it was at least 20 µM; in the test with HLA-B*18:01 (setting [17]) it was 0.89 µM; in the test with HLA-A*31:01 [2] (setting [17]) it was 2.3 µM; with HLA-B*39:01 [10], 3 µM; with HLA-A*68:02 [11] it was at least 20 µM. The Kd with HLA-A*30:01 (setting [17]) is 3.26 µM; with HLA-A*26:02 (setting [17]), at least 20 µM; in the test with HLA-B*07:02 (setting [14]) it was at least 20 µM; with HLA-A*24:03 it was 0.0043 µM; with HLA-A*02:01 (setting [14]) it was at least 20 µM; in the test with HLA-B*15:01 [8] (setting [14]), at least 20 µM. In addition, the dissociation constant Kd in the test with HLA-B*57:01 (setting [14]) is at least 20 µM; with HLA-A*69:01 (setting [14]), at least 20 µM; with HLA-B*15:17 [12], at least 20 µM; with HLA-A*01:01 (setting [14]) it was at least 20 µM; with HLA-C*07:02 (setting [17]), 0.003 µM; in the test with HLA-B*58:01 (setting [14]), at least 20 µM.

The values above are taken from the Immune Epitope Database (IEDB).
